Experimental data as given in article PMC9482650, “Quantitative fragmentomics allow affinity mapping of interactomes” (Nature Communications, 2022).

T1: APBA2_1, Q99767
T1 sequence (Q99767 563-664, limits assumed, looked up): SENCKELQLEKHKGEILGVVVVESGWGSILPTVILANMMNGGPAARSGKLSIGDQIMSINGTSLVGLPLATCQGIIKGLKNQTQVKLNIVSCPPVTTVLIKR

T2: APBA3_1, O96018
T2 sequence (O96018 389-490, limits assumed, looked up): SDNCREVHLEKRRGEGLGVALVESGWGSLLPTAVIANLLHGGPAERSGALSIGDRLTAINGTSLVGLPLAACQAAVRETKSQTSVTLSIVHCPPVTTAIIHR

T3: DFNB31_2, Q9P202
T3 sequence (Q9P202 274-371, limits assumed, looked up): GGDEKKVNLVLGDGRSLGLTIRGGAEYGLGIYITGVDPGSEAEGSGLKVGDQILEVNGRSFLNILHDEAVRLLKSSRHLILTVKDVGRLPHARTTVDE

T4: GRIP1_7, Q9Y3R0
T4 sequence (Q9Y3R0 999-1096, limits assumed, looked up): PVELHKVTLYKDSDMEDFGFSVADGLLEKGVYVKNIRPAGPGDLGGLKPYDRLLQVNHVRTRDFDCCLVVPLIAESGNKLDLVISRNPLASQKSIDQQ

T5: LRRC7, Q96NW7
T5 sequence (Q96NW7 1440-1537, limits assumed, looked up): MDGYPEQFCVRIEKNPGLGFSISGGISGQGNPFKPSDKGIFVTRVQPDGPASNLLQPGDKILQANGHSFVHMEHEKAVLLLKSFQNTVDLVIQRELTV

T6: MPDZ_10, O75970
T6 sequence (O75970 1624-1722, limits assumed, looked up): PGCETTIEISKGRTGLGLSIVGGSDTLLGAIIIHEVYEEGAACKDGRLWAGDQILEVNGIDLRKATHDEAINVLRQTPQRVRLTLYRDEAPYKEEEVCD

T7: MPDZ_12, O75970
T7 sequence (O75970 1857-1958, limits assumed, looked up): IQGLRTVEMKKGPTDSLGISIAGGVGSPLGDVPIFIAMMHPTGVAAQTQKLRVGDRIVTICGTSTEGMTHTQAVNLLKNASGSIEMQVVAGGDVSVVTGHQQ

T8: NHERF3_1, Q5T2W1
T8 sequence (Q5T2W1 4-100, limits assumed, looked up): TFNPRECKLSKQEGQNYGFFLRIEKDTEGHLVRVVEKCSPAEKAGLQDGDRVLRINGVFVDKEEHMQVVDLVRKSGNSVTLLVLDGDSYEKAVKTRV

T9: PTPN13_1, Q12923
T9 sequence (Q12923 1088-1188, limits assumed, looked up): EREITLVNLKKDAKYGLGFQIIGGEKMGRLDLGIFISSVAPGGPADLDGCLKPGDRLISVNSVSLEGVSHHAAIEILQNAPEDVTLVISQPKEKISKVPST

T10: RHPN1, Q8TCX5
T10 sequence (Q8TCX5 508-602, limits assumed, looked up): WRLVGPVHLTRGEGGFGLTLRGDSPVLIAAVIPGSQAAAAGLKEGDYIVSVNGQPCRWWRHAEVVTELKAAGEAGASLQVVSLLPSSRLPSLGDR

T11: SNTA1, Q13424
T11 sequence (Q13424 82-180, limits assumed, looked up): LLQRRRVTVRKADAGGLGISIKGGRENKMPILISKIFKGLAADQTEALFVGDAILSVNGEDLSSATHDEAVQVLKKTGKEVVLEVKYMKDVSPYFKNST

T12: SYNJ2BP, P57105
T12 sequence (P57105 8-110, limits assumed, looked up): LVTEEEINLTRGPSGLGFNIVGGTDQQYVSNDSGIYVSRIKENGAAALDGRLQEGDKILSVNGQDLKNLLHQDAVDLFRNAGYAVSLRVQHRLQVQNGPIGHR

T13: TJP3_3, O95049
T13 sequence (O95049 375-456, limits assumed, looked up): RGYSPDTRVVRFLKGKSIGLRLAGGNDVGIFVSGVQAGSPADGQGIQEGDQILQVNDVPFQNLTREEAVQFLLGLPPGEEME

B1: MARCHF3, Q86UD3 (peptide)
chain: VKRNSKETVV

Each binder was assayed against T1, APBA2_1, Q99767 (assay: holdup assay). Details: plain residues with an end cap or a label only (N-terminal biotin on a linker: ado-ado).
Parameters: key: below the threshold = too weak to quantify, mostly under pKd 3.1 to 4
In the case of B1, the pKd is reported as “below the threshold”.

These binders were tested against T2, APBA3_1, O96018 (assay: holdup assay). Details: plain residues with an end cap or a label only (N-terminal biotin on a linker: ado-ado).
Parameters: key: below the threshold = too weak to quantify, mostly under pKd 3.1 to 4
In the case of B1, the pKd is reported as “below the threshold”.

The binders below were run against CASK, O14936 (assay: holdup assay). Details: plain residues with an end cap or a label only (N-terminal biotin on a linker: ado-ado).
Sequence of CASK, O14936 (O14936 487-570): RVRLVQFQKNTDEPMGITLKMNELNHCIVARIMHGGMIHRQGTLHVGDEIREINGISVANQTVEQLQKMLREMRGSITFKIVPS
Parameters: key: below the threshold = too weak to quantify, mostly under pKd 3.1 to 4
With B1 the pKd was “below the threshold”.

What follows are binders tested against T3, DFNB31_2, Q9P202 (assay: holdup assay). Details: plain residues with an end cap or a label only (N-terminal biotin on a linker: ado-ado).
Parameters: key: below the threshold = too weak to quantify, mostly under pKd 3.1 to 4
In the case of B1, the pKd is reported as “below the threshold”.

These binders were tested against DLG1_1, Q12959 (assay: holdup assay). Details: plain residues with an end cap or a label only (N-terminal biotin on a linker: ado-ado).
Parameters: key: below the threshold = too weak to quantify, mostly under pKd 3.1 to 4
With B1 the pKd was 5.48.

The binders below were run against DLG1_2, Q12959 (assay: holdup assay). Details: plain residues with an end cap or a label only (N-terminal biotin on a linker: ado-ado).
Parameters: key: below the threshold = too weak to quantify, mostly under pKd 3.1 to 4
For B1, the pKd was 6.11.

The binders below were run against DLG1_3, Q12959 (assay: holdup assay). Details: plain residues with an end cap or a label only (N-terminal biotin on a linker: ado-ado).
Parameters: key: below the threshold = too weak to quantify, mostly under pKd 3.1 to 4
Work on B1 yielded a pKd of 4.32.

Each binder was assayed against T4, GRIP1_7, Q9Y3R0 (assay: holdup assay). Details: plain residues with an end cap or a label only (N-terminal biotin on a linker: ado-ado).
Parameters: key: below the threshold = too weak to quantify, mostly under pKd 3.1 to 4
With B1 the pKd was “below the threshold”.

These binders were tested against GRIP2_7, Q9C0E4 (assay: holdup assay). Details: plain residues with an end cap or a label only (N-terminal biotin on a linker: ado-ado).
Sequence of GRIP2_7, Q9C0E4 (Q9C0E4 934-1023): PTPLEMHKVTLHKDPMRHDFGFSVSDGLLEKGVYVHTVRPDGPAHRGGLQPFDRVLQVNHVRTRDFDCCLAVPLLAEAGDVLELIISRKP
Parameters: key: below the threshold = too weak to quantify, mostly under pKd 3.1 to 4
With B1 the pKd was “below the threshold”.

The binders below were run against Inadl_5, Q8NI35 (assay: holdup assay). Details: plain residues with an end cap or a label only (N-terminal biotin on a linker: ado-ado).
Sequence of Inadl_5, Q8NI35 (Q8NI35 673-780): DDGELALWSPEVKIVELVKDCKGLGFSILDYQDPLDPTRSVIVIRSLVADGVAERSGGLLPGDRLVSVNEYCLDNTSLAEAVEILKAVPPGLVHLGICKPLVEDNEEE
Parameters: key: below the threshold = too weak to quantify, mostly under pKd 3.1 to 4
B1 showed a pKd of 3.67.

Each binder was assayed against LNX1_3, Q8TBB1 (assay: holdup assay). Details: plain residues with an end cap or a label only (N-terminal biotin on a linker: ado-ado).
Sequence of LNX1_3, Q8TBB1 (Q8TBB1 500-596): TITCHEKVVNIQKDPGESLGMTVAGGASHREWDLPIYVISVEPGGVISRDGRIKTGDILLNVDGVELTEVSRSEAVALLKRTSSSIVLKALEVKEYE
Parameters: key: below the threshold = too weak to quantify, mostly under pKd 3.1 to 4
In the case of B1, the pKd is reported as “below the threshold”.

These binders were tested against T5, LRRC7, Q96NW7 (assay: holdup assay). Details: plain residues with an end cap or a label only (N-terminal biotin on a linker: ado-ado).
Parameters: key: below the threshold = too weak to quantify, mostly under pKd 3.1 to 4
With B1 the pKd was 3.79.

Each binder was assayed against MAGI1_2, Q96QZ7 (assay: holdup assay). Details: plain residues with an end cap or a label only (N-terminal biotin on a linker: ado-ado).
Sequence of MAGI1_2, Q96QZ7 (Q96QZ7 456-580): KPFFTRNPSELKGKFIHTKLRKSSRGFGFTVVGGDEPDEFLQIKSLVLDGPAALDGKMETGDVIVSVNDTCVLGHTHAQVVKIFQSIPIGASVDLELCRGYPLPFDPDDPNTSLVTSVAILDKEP
Parameters: key: below the threshold = too weak to quantify, mostly under pKd 3.1 to 4
B1 gave a pKd of 4.6.

The binders below were run against MAGI2_2, Q86UL8 (assay: holdup assay). Details: plain residues with an end cap or a label only (N-terminal biotin on a linker: ado-ado).
Sequence of MAGI2_2, Q86UL8 (Q86UL8 410-522): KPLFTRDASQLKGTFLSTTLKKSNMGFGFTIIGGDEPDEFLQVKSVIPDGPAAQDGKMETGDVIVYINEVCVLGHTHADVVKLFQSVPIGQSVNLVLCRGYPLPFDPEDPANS
Parameters: key: below the threshold = too weak to quantify, mostly under pKd 3.1 to 4
In the case of B1, the pKd is reported as 5.26.

Each binder was assayed against MAGI2_4, Q86UL8 (assay: holdup assay). Details: plain residues with an end cap or a label only (N-terminal biotin on a linker: ado-ado).
Sequence of MAGI2_4, Q86UL8 (Q86UL8 772-865): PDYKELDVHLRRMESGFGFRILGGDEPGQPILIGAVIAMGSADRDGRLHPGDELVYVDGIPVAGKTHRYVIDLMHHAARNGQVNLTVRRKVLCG
Parameters: key: below the threshold = too weak to quantify, mostly under pKd 3.1 to 4
With B1 the pKd was 4.21.

The binders below were run against T6, MPDZ_10, O75970 (assay: holdup assay). Details: plain residues with an end cap or a label only (N-terminal biotin on a linker: ado-ado).
Parameters: key: below the threshold = too weak to quantify, mostly under pKd 3.1 to 4
For B1, the pKd was “below the threshold”.

What follows are binders tested against T7, MPDZ_12, O75970 (assay: holdup assay). Details: plain residues with an end cap or a label only (N-terminal biotin on a linker: ado-ado).
Parameters: key: below the threshold = too weak to quantify, mostly under pKd 3.1 to 4
B1 was tested, and the pKd was “below the threshold”.

Each binder was assayed against T8, NHERF3_1, Q5T2W1 (assay: holdup assay). Details: plain residues with an end cap or a label only (N-terminal biotin on a linker: ado-ado).
Parameters: key: below the threshold = too weak to quantify, mostly under pKd 3.1 to 4
In the case of B1, the pKd is reported as “below the threshold”.

Each binder was assayed against NHERF4_4, Q86UT5 (assay: holdup assay). Details: plain residues with an end cap or a label only (N-terminal biotin on a linker: ado-ado).
Sequence of NHERF4_4, Q86UT5 (Q86UT5 464-550): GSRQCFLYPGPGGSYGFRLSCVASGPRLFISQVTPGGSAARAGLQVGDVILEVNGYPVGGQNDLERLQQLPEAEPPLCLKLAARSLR
Parameters: key: below the threshold = too weak to quantify, mostly under pKd 3.1 to 4
For B1, the pKd was “below the threshold”.

Each binder was assayed against PDZRN4_1, Q6ZMN7 (assay: holdup assay). Details: plain residues with an end cap or a label only (N-terminal biotin on a linker: ado-ado).
Sequence of PDZRN4_1, Q6ZMN7 (Q6ZMN7 213-318): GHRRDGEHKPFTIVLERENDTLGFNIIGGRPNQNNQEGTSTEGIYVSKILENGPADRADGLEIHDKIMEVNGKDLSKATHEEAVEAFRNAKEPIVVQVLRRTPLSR
Parameters: key: below the threshold = too weak to quantify, mostly under pKd 3.1 to 4
For B1, the pKd was “below the threshold”.

The binders below were run against T9, PTPN13_1, Q12923 (assay: holdup assay). Details: plain residues with an end cap or a label only (N-terminal biotin on a linker: ado-ado).
Parameters: key: below the threshold = too weak to quantify, mostly under pKd 3.1 to 4
B1 showed a pKd of 3.53.

Each binder was assayed against T10, RHPN1, Q8TCX5 (assay: holdup assay). Details: plain residues with an end cap or a label only (N-terminal biotin on a linker: ado-ado).
Parameters: key: below the threshold = too weak to quantify, mostly under pKd 3.1 to 4
In the case of B1, the pKd is reported as 4.07.

These binders were tested against T11, SNTA1, Q13424 (assay: holdup assay). Details: plain residues with an end cap or a label only (N-terminal biotin on a linker: ado-ado).
Parameters: key: below the threshold = too weak to quantify, mostly under pKd 3.1 to 4
For B1, the pKd was 5.37.

These binders were tested against T12, SYNJ2BP, P57105 (assay: holdup assay). Details: plain residues with an end cap or a label only (N-terminal biotin on a linker: ado-ado).
Parameters: key: below the threshold = too weak to quantify, mostly under pKd 3.1 to 4
In the case of B1, the pKd is reported as 4.76.

These binders were tested against T13, TJP3_3, O95049 (assay: holdup assay). Details: plain residues with an end cap or a label only (N-terminal biotin on a linker: ado-ado).
Parameters: key: below the threshold = too weak to quantify, mostly under pKd 3.1 to 4
In the case of B1, the pKd is reported as “below the threshold”.
